Results taken from patent publication US7884067B2, “Peptides derived from cadherin and methods of use thereof” (Mount Sinai School of Medicine of New York University, priority 2001, dated 2011).

B1: N-Cad/CTF2: chicken cytoplasmic domain of N-cadherin (N-Cad/CTF2) inserted into vector pECE, expressed in L cells (protein)
chain: KRRDKERQAKQLLIDPEDDVRDNILKYDEEGGGEEDQDYDLSQLQQPDTVEPDAIKPVGIRRLDERPIHAEPQYPVRSAAPHPGDIGDFINEGLKAADNDPTAPPYDSLLVFDYEGSGSTAGSLSSLNSSSSGGEQDYDYLNDWGPRFKKLADMYGGGDD

Experiments:
[1] = tested on: CRE-dependent transactivation; assay: CRE-dependent luciferase activity in HEK293 cultures stably transfected with WT-PS1; format: cell-based, human; details: presence of L-685,458, FIG. 9B
Description: Transactivation assays. CRE-dependent transactivation was measured in the absence or presence of overexpression of PKA (pFC-PKA, Stratagene) by cotransfection with CRE-luciferase reporter plasmid (pCRE-Luc, Stratagene) and pSV-β-galactosidase vector (Promega) to evaluate transfection efficiency. CHOP-mediated transactivation was measured by cotransfection with the Gal4-fusion trans-activator plasmids (pFA-CHOP and pFR-Luc, Stratagene). 30 hours after transfection, luciferase and β-galactosidase activities were determined following manufacturer's instructions using a TD-20/20 luminometer (Turner Designs) and a DU-64 spectrophotometer (Beckman). Values were normalized to β-galactosidase activity and protein concentration.
HEK293 cultures stably transfected either with vector or WT-PS1 were co-transfected with pFC-PKA, pCRE-Luc, and pSV-β-galactosidase in the presence or absence of L-685,458 and then processed for CRE-dependent luciferase activity. Data in FIGS. 9A and B are the mean+/−s.e. of 4 experiments normalized to β-galactosidase activity and protein concentration. *, P<0.05; ***, P<0.001 (Student's t test).

CBP [2] = molecular target: T1, CBP (Mus musculus, UniProt P45481); assay: Immunofluorescence staining of pN-Cad/CTF2-transfected L cells; format: cell-based; details: compared to non-transfected controls
T1 construct: a process that relies on endogenous CBP and CREB; endogenous in cells; host or cells: L cells transfected with vector or pN-Cad/CTF2
Description: (§1) Immunoprecipitations (IPs), immunoblotting and immunofluorescence. IPs were performed as described by Marambaud et al. (2002) EMBO J. 21: 1948-1956 in 4° C. HEPES buffer (25 mM HEPES, pH 7.4, 150 mM NaCl, 1× Complete protease inhibitor cocktail, Roche) containing 0.5% Nonidet P40 (NP40). For western blot (WB) analysis, cells were solubilized in 4° C. RIPA buffer (50 mM Tris-HCl, pH 8, 150 mM NaCl, 0.1% SDS, 1% NP-40, 0.5% sodium deoxycholate, 1× Complete protease inhibitor cocktail) as described by Marambaud et al. (2002). Immunofluorescence was performed as described by Georgakopoulos et al. (1999) with the following modifications: to visualize nuclei, cells were treated for 5 minutes with 4′,6-diamidino-2-phenylndole (DAPI, 1:5000; Sigma). Fluorescence microscopy and digital image acquisition were carried out using an Axioskop2 microscope (Zeizz).
(§2) To determine how N-Cad/CTF2 affects CREB-mediated transcription, the following experiments were performed. L cells transfected either with vector (vector) or pN-Cad/CTF2 (N-Cad/CTF2) plasmids were fractionated into nuclear and cytosolic fractions, and probed on WBs with anti-CBP (FIG. 11A, panel a), anti-N-cadherin (FIG. 11A, panel b), anti-β-tubulin (FIG. 11A, panel c) or anti-phosphorylated CREB (P-CREB; FIG. 11A, panel d) antibodies. […] L cells transiently transfected with pN-Cad/CTF2 were analyzed by immunofluorescence staining. […]

c-fos = c-fos mRNA (RT-PCR) and protein (Western blot) in L cells; format: cell-based
Description: Reverse Transcriptase (RT)-PCR Analysis. Total RNA was extracted from cells using a RNeasy Mini Kit (Qiagen) according to instructions by the manufacturer. Analysis of gene expression was performed using semiquantitative RT-PCR. The following primers were used: 5′-[…]-3′ (SEQ ID NO: 13) and 5′-[…]-3′ (SEQ ID NO: 14) for c-fos; 5′-[…]-3′ (SEQ ID NO: 15) and 5′-[…]-3′ (SEQ ID NO: 16) for gapdh.
Semi-quantitative RT-PCR was used to determine relative levels of c-fos or gapdh mRNAs from L cells transfected either with vector (vector) or with 0.5 mg of pN-Cad/CTF2 (N-Cad/CTF2). The graph in FIG. 9C represents the relative abundance of c-fos-specific PCR products following quantitation of the mRNA signals shown in the upper panel.
Extracts from L cells transfected with increasing amount of pN-Cad/CTF2 were probed on WBs with anti-c-fos (FIG. 9D, upper panel), anti-β-tubulin (FIG. 9D, middle panel) or C32 (FIG. 9D, lower panel) antibodies. Bars in lower panel represent the relative amounts of c-fos protein detected on WBs shown in the upper panel.

CBP [3] = molecular target: T1, CBP; assay: Co-immunoprecipitation in pN-Cad/CTF2-transfected L cells; format: binding; details: FIG. 11B
Description: as §1, §2

T1 sequence (P45481 whole entry): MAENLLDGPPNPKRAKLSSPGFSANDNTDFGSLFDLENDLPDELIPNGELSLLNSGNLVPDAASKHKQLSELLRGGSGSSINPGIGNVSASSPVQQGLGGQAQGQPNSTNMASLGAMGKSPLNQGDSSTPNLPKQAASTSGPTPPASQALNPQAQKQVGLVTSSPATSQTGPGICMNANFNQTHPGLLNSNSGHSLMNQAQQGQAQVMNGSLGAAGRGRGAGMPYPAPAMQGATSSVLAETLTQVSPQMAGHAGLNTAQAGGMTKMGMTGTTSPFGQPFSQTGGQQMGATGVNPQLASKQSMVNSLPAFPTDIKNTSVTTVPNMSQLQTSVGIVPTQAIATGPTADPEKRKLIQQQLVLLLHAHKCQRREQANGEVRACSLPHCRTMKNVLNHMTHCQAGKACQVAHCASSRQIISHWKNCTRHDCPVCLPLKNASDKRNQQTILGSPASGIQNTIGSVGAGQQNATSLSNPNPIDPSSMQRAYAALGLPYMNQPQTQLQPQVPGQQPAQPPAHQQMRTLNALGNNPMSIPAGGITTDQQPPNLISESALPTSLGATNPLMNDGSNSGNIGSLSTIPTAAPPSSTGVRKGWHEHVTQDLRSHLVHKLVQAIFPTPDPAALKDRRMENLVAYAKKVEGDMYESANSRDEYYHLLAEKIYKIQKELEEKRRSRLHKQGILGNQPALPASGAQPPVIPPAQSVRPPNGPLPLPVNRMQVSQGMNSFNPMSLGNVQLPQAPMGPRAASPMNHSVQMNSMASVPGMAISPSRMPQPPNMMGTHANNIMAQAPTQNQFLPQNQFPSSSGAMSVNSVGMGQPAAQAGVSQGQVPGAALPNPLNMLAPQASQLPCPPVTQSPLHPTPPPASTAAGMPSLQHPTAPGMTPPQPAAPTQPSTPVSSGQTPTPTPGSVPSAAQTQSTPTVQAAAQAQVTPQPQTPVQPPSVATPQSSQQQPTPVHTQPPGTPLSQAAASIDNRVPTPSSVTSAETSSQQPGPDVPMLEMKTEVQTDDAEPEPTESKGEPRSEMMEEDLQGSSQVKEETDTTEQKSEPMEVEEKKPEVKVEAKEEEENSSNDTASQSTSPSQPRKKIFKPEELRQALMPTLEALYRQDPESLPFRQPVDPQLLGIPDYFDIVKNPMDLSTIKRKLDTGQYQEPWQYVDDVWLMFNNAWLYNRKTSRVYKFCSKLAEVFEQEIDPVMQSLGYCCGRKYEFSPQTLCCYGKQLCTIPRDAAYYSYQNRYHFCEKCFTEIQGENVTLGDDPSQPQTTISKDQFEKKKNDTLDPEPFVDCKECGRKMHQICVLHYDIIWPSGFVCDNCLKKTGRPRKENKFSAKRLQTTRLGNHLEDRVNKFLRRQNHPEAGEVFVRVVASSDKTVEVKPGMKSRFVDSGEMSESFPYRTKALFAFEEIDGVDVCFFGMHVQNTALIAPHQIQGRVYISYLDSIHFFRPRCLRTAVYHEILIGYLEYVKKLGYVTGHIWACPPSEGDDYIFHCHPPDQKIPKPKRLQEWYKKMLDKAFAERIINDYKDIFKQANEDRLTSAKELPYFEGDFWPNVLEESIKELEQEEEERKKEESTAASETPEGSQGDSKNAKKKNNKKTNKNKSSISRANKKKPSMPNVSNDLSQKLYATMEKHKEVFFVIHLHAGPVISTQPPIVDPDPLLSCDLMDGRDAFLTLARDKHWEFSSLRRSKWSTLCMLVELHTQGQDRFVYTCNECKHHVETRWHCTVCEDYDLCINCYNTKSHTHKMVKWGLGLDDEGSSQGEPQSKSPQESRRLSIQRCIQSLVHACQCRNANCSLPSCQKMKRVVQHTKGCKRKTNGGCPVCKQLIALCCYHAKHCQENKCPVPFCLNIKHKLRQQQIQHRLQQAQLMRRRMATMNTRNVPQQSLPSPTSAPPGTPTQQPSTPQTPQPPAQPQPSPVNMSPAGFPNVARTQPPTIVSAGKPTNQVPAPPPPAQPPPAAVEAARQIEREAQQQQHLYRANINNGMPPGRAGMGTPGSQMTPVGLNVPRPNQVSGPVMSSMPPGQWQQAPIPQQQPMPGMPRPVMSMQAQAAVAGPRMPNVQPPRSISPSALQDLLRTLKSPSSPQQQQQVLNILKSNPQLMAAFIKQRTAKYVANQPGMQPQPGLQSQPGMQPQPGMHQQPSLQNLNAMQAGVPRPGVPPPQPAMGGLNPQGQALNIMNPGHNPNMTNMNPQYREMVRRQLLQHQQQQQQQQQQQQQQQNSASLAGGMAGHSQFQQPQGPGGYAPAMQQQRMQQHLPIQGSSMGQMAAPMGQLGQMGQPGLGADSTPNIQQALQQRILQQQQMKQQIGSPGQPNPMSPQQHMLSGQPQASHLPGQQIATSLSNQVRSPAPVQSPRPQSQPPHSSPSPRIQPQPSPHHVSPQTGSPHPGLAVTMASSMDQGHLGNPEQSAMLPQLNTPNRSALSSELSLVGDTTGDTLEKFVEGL

Molecule	decrease of CRE-dependent transactivation caused by PS1 overexpression [1]	cytoplasmic staining for N-Cad/CTF2 and CBP (CBP [2])	cellular c-fos mRNA (c-fos; 0.5 mg of pN-Cad/CTF2, vs vector, FIG. 9C)	c-fos protein (c-fos; increasing amount of pN-Cad/CTF2, FIG. 9D)	levels of β-tubulin (c-fos; pN-Cad/CTF2, FIG. 9D)	expression of gapdh mRNA (c-fos; pN-Cad/CTF2 vs vector, FIG. 9C)	co-immunoprecipitation of N-Cad/CTF2 with CBP (CBP [3])
CC(C)C[C@H](NC(=O)[C@H](Cc1ccccc1)C[C@@H](O)[C@H](Cc1ccccc1)NC(=O)OC(C)(C)C)C(=O)N[C@@H](Cc1ccccc1)C(N)=O [L-685,458]	reversed	–	–	–	–	–	–
B1	–	clear cytoplasmic staining for both N-Cad/CTF2 and CBP	markedly reduces	markedly reduces	no effect	no effect	co-immunoprecipitates with CBP
